In experiment [1] the target is T1, His-tagged human HER3 protein (hHER3, ACRO Biosystems Inc., Cat #: ER3-H5223) (human, UniProt P21860 20-643).
T1 construct: Bought protein; also called hHER3-His; not shown: His tag
As to the kind of experiment: SPR, Ab captured on Protein A. The method, then:
(§1) Purified anti-HER3 antibodies was captured on the Protein A chip (Series S Sensor Chip Protein A) for the detection. […] For ISO control, an antibody targeting an irrelevant target protein was used. The flow rate was 30 μL/min, the binding and dissociation time were set to 180 s and 400 s, respectively. The chip was regenerated after the last injection of each titration with a glycine solution (pH 2.0) at 30 μL/min for 30 seconds.
(§2) As a person of ordinary skill in the art would understand, the same method with appropriate adjustments for parameters (e.g., antibody concentration) was performed for each tested antibody.
For orientation: In SPR one partner is held on a chip, and binding of the other changes the refractive index at the surface.

Experiment [2] has as its target T2, His-tagged monkey HER3 protein (fasHER3, Sino Biological, Inc., Cat #: 90043-K08H) (monkey).
T2 construct: Bought protein
As to the kind of experiment: SPR, Ab captured on Protein A. The method, then:
as §1, §2

The target of experiment [3] is T3, human HER3 on CHO-hHER3 cells (human, UniProt P21860 20-643).
T3 construct: CHO-S cells transfected with hHER3
As to the kind of experiment: flow cytometry, transfected CHO cells. How it is done: (§3) CHO-hHER3 cells, CHO-mHER3 cells, CHO-fasHER3 cells or CHO-dHER3 cells were transferred to a 96-well plate at a density of 5×10⁴ cells/well respectively. The anti-HER3 antibodies were added to the 96-well plate, and incubated at 4° C. for 30 min.
A general note: Flow cytometry measures light scatter and fluorescence of single cells or particles in a stream.

Experiment [4] addresses T4, mouse HER3 on CHO-mHER3 cells (mouse, UniProt Q61526 20-641).
T4 construct: CHO-S cells transfected with mHER3
As to the kind of experiment: flow cytometry, transfected CHO cells. The method, then:
as §3

Experiment [5] has as its target T5, monkey (Macaca fascicularis) HER3 on CHO-fasHER3 cells (monkey (Macaca fascicularis), UniProt P21860 20-643 (human entry)).
T5 construct: CHO-S cells transfected with fasHER3
T5 chain: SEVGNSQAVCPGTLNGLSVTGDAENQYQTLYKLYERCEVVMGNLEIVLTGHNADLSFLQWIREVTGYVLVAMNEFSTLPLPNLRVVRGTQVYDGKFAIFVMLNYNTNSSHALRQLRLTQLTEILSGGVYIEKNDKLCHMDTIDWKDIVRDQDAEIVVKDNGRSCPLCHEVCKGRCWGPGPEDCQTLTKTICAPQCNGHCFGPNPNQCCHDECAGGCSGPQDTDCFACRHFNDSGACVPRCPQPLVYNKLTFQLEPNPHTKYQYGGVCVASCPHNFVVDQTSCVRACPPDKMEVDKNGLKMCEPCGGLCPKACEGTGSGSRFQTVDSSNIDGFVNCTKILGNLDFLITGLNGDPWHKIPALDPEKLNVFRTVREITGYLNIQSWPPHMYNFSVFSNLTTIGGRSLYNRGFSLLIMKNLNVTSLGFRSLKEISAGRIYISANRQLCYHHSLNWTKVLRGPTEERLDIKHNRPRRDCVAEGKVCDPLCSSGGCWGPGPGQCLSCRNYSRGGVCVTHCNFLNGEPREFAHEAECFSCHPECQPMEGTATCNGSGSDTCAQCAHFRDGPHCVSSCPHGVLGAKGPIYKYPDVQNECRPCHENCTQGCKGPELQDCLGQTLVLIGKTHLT
As to the kind of experiment: flow cytometry, transfected CHO cells. The method, then:
as §3

For experiment [6], the target named is T6, dog HER3 on CHO-dHER3 cells (dog, UniProt P21860 20-1342 (human entry)).
T6 construct: CHO-S cells transfected with dHER3
T6 chain: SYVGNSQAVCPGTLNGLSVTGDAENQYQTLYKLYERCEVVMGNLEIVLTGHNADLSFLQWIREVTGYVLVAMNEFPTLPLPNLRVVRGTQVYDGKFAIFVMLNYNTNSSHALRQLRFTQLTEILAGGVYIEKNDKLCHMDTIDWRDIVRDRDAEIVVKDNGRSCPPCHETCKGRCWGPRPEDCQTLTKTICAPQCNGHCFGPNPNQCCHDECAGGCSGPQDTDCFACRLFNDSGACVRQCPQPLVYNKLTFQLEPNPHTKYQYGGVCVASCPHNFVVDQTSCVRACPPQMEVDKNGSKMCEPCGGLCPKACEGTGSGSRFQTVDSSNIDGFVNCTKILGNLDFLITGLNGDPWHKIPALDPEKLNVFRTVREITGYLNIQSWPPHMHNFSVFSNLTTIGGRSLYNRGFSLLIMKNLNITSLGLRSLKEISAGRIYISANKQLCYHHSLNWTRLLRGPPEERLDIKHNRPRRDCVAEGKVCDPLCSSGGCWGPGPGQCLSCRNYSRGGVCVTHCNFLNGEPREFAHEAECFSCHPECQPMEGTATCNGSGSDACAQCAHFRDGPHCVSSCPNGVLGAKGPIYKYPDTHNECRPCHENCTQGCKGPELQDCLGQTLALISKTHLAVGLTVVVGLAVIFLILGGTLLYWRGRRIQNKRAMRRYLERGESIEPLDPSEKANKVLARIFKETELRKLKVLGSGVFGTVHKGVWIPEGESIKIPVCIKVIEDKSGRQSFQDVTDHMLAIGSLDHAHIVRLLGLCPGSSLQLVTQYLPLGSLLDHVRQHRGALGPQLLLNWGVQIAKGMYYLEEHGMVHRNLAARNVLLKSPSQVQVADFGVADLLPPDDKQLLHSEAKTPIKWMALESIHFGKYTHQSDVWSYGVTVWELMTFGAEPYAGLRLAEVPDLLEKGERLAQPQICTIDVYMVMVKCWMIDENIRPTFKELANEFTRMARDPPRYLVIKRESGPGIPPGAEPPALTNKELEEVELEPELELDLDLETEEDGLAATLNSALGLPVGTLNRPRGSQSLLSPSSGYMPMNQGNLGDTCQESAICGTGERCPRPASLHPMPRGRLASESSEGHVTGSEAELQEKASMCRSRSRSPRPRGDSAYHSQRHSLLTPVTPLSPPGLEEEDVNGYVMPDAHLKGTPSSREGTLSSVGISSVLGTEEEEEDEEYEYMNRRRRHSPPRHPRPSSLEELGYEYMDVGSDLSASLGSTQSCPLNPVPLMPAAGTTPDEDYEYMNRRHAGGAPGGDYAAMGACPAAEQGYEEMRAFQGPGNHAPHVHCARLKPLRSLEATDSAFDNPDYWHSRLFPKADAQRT
As to the kind of experiment: flow cytometry, transfected CHO cells. The method, then:
as §3

T4 sequence (Q61526 20-641): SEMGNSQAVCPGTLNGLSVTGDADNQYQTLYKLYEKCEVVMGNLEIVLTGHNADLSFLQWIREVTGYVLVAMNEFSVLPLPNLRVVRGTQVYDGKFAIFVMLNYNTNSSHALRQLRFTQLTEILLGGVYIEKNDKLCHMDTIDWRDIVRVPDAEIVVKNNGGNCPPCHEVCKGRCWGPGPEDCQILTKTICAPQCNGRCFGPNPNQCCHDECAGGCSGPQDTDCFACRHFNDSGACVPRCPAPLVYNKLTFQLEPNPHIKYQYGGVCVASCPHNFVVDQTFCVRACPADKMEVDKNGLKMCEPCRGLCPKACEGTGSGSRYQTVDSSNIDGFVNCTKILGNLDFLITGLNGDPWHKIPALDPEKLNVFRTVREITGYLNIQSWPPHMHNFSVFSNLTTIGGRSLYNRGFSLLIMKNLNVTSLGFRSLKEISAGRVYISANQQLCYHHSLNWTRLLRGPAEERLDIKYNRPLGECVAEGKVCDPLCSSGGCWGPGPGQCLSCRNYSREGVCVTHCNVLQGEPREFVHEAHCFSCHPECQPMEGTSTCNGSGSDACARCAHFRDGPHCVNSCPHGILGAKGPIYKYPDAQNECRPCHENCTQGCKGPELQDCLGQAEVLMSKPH

B1: anti-HER3 antibody 1C5 (antibody, V domains shown)
VH: QVQLVESGGGVVQPGKSLRLSCAASGFTFSRSGMHWVRQAPGKGLEWVALISFDGSNKYYADSVKGRFTISRDNSKNTLNLQMNSLRAEDTAVYYCAKGGFGVVIYDAFDIWGHGTMVTVSS
VL: not shown
notes: common light chain
What is called Kd is the concentration at which binding is half-saturated. For orientation: koff means the rate constant with which the complex falls apart. As a reminder, the kon is the rate constant with which the complex forms. On to B1, for which the Kd in experiment [1] worked out at 30 nM; in experiment [2], 31.7 nM. For the same molecule, the koff was 0.000637 s⁻¹ in experiment [1] and 0.000582 s⁻¹ in experiment [2]. Moreover, the values for the on-rate constant (kon) in experiment [1] and in experiment [2] were 21200 M⁻¹ s⁻¹ and 18400 M⁻¹ s⁻¹, respectively. Besides, the “Percentage of Positive Cells” value was found to be 74% in experiment [3], 3.4% in experiment [4], 72.8% in experiment [5] and 33.1% in experiment [6]. Further, the binding result in experiment [4] was “no binding”.

B2: anti-HER3 antibody 3G6 (antibody, V domains shown)
VH: QVQLVQSGPVLVKPTETLTLTCTVSGFSLSNIRMGVSWIRQPPGKALEWLAHIFSNDDKSYSTSLKSRLTISKDTSKSQVVLTMTNVDPVDTATYYCTRMRYSGGPFDYWGQGTLVTVSS
VL: not shown
notes: common light chain
With B2, the Kd in experiment [1] is 34.8 nM; in experiment [2], 50.9 nM. In addition, the koff in experiment [1] was determined as 0.0091 s⁻¹; in experiment [2], 0.00834 s⁻¹. In addition, the on-rate (kon) in experiment [1] was found to be 261000 M⁻¹ s⁻¹; in experiment [2], 164000 M⁻¹ s⁻¹. Further, the “Percentage of Positive Cells” value in experiment [3] was found to be 66.5%; in experiment [4], 15.2%; in experiment [5], 65.6%; in experiment [6] it was 29.8%.

B3: anti-HER3 antibody 1B2 (antibody, V domains shown)
VH: QVQLVQSGPVLVKPTETLTLTCTVSTFSLSNARMGVSWIRQPPGKALEWLAHIFSNDDKSYSPSLKSRLTISKDTSKTQVVLTMTNMDPVDTATYYCSRMRYSGGPFDYWGQGSLVTVSS
VL: not shown
notes: common light chain
In the case of B3, the Kd in experiment [1] turned out to be 13.3 nM; in experiment [2], 22.3 nM. For the same molecule, the koff in experiment [1] stood at 0.00239 s⁻¹; in experiment [2], 0.00224 s⁻¹. Besides, the kon in experiment [1] was 179000 M⁻¹ s⁻¹; in experiment [2], 100000 M⁻¹ s⁻¹. The “Percentage of Positive Cells” value amounted to 71.3% in experiment [3], 22.4% in experiment [4], 69% in experiment [5] and 32.1% in experiment [6].

B4: anti-HER3 antibody 3E1 (antibody, V domains shown)
VH: EVQLVQSGPVLAKPTETLTLTCTVSGFSLSNIRMGVSWIRQPPGKALEWLAHIFSNDDKSYSPSLKNRLTISKDTSKSQVVLTMTTMDPMDTATYYCTRMKYSGGPFDYWGQGTLVTVSS
VL: not shown
notes: common light chain
Consider B4, for which the Kd is 11.5 nM in experiment [1] and 19.1 nM in experiment [2]. Further, the koff was determined as 0.00319 s⁻¹ in experiment [1] and 0.00289 s⁻¹ in experiment [2]. Further, the results for the kon in experiment [1] and in experiment [2] were 277000 M⁻¹ s⁻¹ and 152000 M⁻¹ s⁻¹, respectively. In addition, the “Percentage of Positive Cells” value in experiment [3] was 70.6%; in experiment [4] it was 23%; in experiment [5] it was 69.4%; in experiment [6] it was 13.2%.

(Values after patent US20260250418A1 (BIOCYTOGEN PHARMACEUTICALS BEIJING, published 2026).)
